The text below walks through data of paper PMC3689955 (The Journal of Biological Chemistry, 2013).

The experiment has as its target T1, Ligase IV (UniProt P49917 1-911).
T1 construct: DNA Ligase IV, the subunit of XL; also called DNA Ligase IV
T1 sequence (looked up): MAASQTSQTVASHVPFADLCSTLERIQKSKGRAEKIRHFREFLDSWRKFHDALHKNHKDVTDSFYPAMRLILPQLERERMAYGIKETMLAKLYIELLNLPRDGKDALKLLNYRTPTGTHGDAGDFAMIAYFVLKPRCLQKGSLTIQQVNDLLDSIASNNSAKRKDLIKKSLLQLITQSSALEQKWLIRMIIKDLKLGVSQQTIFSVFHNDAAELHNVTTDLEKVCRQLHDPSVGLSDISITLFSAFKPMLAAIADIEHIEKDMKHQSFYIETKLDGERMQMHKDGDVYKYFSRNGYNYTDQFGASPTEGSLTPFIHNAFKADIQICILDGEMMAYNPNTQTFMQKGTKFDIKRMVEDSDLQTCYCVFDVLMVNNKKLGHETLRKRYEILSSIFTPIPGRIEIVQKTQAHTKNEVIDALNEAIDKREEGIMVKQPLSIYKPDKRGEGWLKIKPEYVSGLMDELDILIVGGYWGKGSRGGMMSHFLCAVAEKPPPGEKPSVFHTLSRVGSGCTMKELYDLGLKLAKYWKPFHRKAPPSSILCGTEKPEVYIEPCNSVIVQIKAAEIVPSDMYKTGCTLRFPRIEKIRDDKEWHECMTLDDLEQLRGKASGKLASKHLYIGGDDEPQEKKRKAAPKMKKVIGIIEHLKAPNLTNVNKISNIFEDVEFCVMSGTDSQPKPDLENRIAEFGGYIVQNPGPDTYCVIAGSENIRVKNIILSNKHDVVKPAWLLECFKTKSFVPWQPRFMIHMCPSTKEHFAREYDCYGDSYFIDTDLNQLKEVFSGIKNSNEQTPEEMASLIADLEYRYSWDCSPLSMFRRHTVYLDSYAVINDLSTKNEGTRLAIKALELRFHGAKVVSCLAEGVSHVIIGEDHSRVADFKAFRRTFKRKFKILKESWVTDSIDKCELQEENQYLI
The settings on record: both partners purified.

B1: XRCC4 (natural protein, UniProt Q13426 1-336, looked up)
chain: MERKISRIHLVSEPSITHFLQVSWEKTLESGFVITLTDGHSAWTGTVSESEISQEADDMAMEKGKYVGELRKALLSGAGPADVYTFNFSKESCYFFFEKNLKDVSFRLGSFNLEKVENPAEVIRELICYCLDTIAENQAKNEHLQKENERLLRDWNDVQGRFEKCVSAKEALETDLYKRFILVLNEKKTKIRSLHNKLLNAAQEREKDIKQEGETAICSEMTADRDPVYDESTDEESENQTDLSGLASAAVSKDDSIISSLDVTDIAPSRKRRQRMQRNLGTEPKMAPQENQLQEKENSRPDSSLPETSKKEHISAENMSLETLRNSSPEDLFDEI
notes: also called XRCC4 homodimer
Regarding B1, the “stoichiometry N” value was < 1 XRCC4 dimer to Ligase IV molar ratio.
